Reference: patent US20240254196A1

Columns and labels:
[1] = target: human IL-1α (human) (UniProt P01583); test: cell-based or functional assay
[2] = target: human IL-1β (human) (UniProt P01584); test: cell-based or functional assay
[3] = target: human FcγRIIIA (human) (UniProt P08637); test: BLI, Octet Red96e; His-tagged FcγRIIIA on anti-Penta-HIS sensor, 80-1,280 nM analyte; 1:1 model
[4] = target: mouse IL-1α (mouse) (UniProt P01582); test: SPR, Biacore T200; binder captured by anti-human Fc, cytokine injected; 1:1 Langmuir
mouse IL-1α (mouse), sequence (P01582 115-270 limits assumed): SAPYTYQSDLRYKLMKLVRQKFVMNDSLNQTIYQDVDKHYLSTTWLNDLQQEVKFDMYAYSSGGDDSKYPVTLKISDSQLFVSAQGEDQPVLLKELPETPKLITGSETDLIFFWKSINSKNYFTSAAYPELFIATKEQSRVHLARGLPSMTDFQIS

[5] = target: human IL-1α (human) (UniProt P01583); test: as above
[6] = target: mouse IL-1β (mouse) (UniProt P10749); test: as above
mouse IL-1β (mouse), sequence (P10749 118-269 limits assumed): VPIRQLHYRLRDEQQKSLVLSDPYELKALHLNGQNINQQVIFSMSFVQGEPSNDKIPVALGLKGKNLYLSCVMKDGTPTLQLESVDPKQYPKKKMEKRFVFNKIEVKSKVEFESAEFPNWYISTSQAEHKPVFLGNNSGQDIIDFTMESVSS

[7] = target: human IL-1β (human) (UniProt P01584); test: as above
[8] = target: rhesus monkey (Rhesus macaque) IL-1β (rhesus monkey (Rhesus macaque)) (UniProt P48090); test: as above
[9] = target: human FcγRI (human) (UniProt P12314); test: BLI (Octet Red96e), His-tagged human FcγRI on Anti-Penta-HIS biosensor, analyte 10-160 nM as printed on the sheet, 1:1 model [B]
human FcγRI (human), sequence (P12314 16-288 limits assumed): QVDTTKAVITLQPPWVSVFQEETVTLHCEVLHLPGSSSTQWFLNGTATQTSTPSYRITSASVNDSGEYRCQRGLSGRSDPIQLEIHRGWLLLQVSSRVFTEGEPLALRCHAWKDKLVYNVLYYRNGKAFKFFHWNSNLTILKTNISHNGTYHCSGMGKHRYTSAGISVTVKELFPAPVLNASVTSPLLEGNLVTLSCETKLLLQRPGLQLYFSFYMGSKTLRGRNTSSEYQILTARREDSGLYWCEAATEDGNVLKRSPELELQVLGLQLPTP

[10] = target: human FcγRI (human) (UniProt P12314); test: BLI, Octet Red96e; His-tagged FcγRI on anti-Penta-HIS sensor, 80-1,280 nM analyte; 1:1 model
[11] = target: human IL-1β (human) (UniProt P01584); test: ELISA, human IL-1β coated at 30 ng/well, detection with anti-human IgG Fc-HRP, OD 450 nm
[12] = target: human FcγRIIIA (human) (UniProt P08637); test: BLI (Octet Red96e), His-tagged human FcγRIIIA on Anti-Penta-HIS biosensor, analyte 80-1280 nM, 1:1 model [B]
[13] = target: Human FcRn (Homo sapiens) (UniProt P55899); test: BLI (Octet Red96e), His-tagged human FcRn on Anti-Penta-HIS biosensor, pH 6.0, analyte 31.25-1000 nM, 1:1 model [A]

human IL-1α (human), sequence (P01583 113-271 limits assumed): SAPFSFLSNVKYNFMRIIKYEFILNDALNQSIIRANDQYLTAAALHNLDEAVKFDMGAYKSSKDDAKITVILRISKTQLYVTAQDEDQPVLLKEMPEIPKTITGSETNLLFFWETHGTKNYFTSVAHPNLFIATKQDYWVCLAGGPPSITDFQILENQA
human FcγRIIIA (human), sequence (P08637 17-208 limits assumed): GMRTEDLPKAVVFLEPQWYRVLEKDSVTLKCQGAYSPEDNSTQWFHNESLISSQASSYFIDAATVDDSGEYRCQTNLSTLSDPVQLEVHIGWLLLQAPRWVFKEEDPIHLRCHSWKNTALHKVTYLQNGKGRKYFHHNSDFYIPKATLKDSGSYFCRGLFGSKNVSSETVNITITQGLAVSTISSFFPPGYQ

SEAP secretion, IL-1β reporter HEK 293 cell line, 10 ng/ml human IL-1α [1]: 0.308 nM
EC50 of in vivo neutralisation: inhibition of the rise of serum IL-6 in C57BL/6 mice given human IL-1β (300 ng/kg i.p.) 24 h after s.c. rilonacept [2]: 10.5 µg/kg
IL-1β-mediated IL-6 secretion, A549 cell line, 1 ng/ml IL-1β [2]: 37 pM
SEAP secretion, IL-1β reporter HEK 293 cell line, 10 ng/ml human IL-1β [2]: 0.243 nM
inhibition of SEAP secretion at 4 nM, IL-1β reporter HEK 293 cell line [2]: 99.5%
inhibitory activity (%) on the IL-1β-induced rise of serum IL-6 in mice, at a 3-fold molar excess over the administered IL-1β [2]: 50%
Kd [3]: 913 nM
Kd [4]: 0.0383 nM
koff [4]: 0.000178 s⁻¹
kon [4]: 4.66e+06 M⁻¹ s⁻¹
Kd [5]: 0.00491 nM
koff [5]: 4.5e-05 s⁻¹
kon [5]: 9.18e+06 M⁻¹ s⁻¹
Kd [6]: 0.369 nM
koff [6]: 0.000328 s⁻¹
kon [6]: 890000 M⁻¹ s⁻¹
Kd [7]: 0.00256 nM
koff [7]: 8.67e-05 s⁻¹
kon [7]: 3.39e+07 M⁻¹ s⁻¹
Kd [8]: 0.00178 nM
koff [8]: 2.43e-05 s⁻¹
kon [8]: 1.36e+07 M⁻¹ s⁻¹
koff [9]: 0.00209 s⁻¹
kon [9]: 45600 M⁻¹ s⁻¹
Kd [10]: 45.8 nM
EC50 [11]: 0.0947 nM
koff [12]: 0.0538 s⁻¹
kon [12]: 59000 M⁻¹ s⁻¹
Kd [13]: 453 nM
koff [13]: 0.0489 s⁻¹
kon [13]: 108000 M⁻¹ s⁻¹
Substance: rilonacept (Fc fusion)
